This is an account of results in paper PMC2323298 (PLoS Pathogens, 2007).

Test [1] has as its target T1, AMA1 (apical membrane antigen 1) domains I+II (Plasmodium falciparum 3D7, UniProt Q7KQK5).
T1 construct: also called AMA1 domains I+II
The experiment in a line: crystal structure; AMA1 domains I+II and 1F9 Fab mixed (Fab in slight excess); 20 mM MES pH 6.0, 10 mM MnCl2, 6% PEG 3350, hanging drops; two crystal forms. The settings on record: both partners purified.

For test [2], the target named is T2, 3D7 AMA1 domain I expressed on M13 phage (Plasmodium falciparum 3D7, UniProt Q7KQK5).
T2 construct: also called 3D7 domain I; domain I AMA1
Nature of the test: ELISA. To be noted: one partner purified.

Test [3] has as its target T3, Full-length 3D7 AMA1 ectodomain (Plasmodium falciparum 3D7, UniProt Q7KQK5).
T3 construct: also called recombinant full-length 3D7 AMA1 ectodomain; full-length recombinant AMA1
Nature of the test: ELISA; competition ELISA: 100 ul of 0.3 ug/ml full-length AMA1 ectodomain immobilised on plastic; dilutions of human plasma added, followed by 10 ul of 3.0 ug/ml mAb; peroxidase-conjugated anti-mouse antibodies. To be noted: both partners purified. Background: An ELISA detects its analyte on a solid surface through an enzyme-linked reagent.

B1: 1F9 Fab fragment (Fab, V domains shown)
VH: EVQLQQSGAELLRPGASVKLSCIVSGFKIKDTSMHWVKQRPEQGLEWIGRIDPANDNSEYDPKFQGKATITADTSSNTAYLQLSSLTSEDTAVYYCTLSHFWGQGTTLTVSS
VL: SIVMTQTPKFLPVSAGDRVTIICKASQSVSNDVVWYQQKPGQSPKLLIYYASIRYTGVPDRFTGSGYGTDFTFTISTVQVEDLAVYFCQQGFSSPRTFGGGTKLEIN
notes: also called Fab 1F9
As to B1, the binding result in test [1] was “binds”.

B2: Mouse monoclonal antibody 1F9 (isotype IgG2b with a Kappa light chain) (antibody, V domains shown)
VH: EVQLQQSGAELLRPGASVKLSCIVSGFKIKDTSMHWVKQRPEQGLEWIGRIDPANDNSEYDPKFQGKATITADTSSNTAYLQLSSLTSEDTAVYYCTLSHFWGQGTTLTVSS
VL: SIVMTQTPKFLPVSAGDRVTIICKASQSVSNDVVWYQQKPGQSPKLLIYYASIRYTGVPDRFTGSGYGTDFTFTISTVQVEDLAVYFCQQGFSSPRTFGGGTKLEIN
notes: also called mAb 1F9
Take B2: the binding result in test [2] and in test [3] was “binds” in each case.
